Experimental data as given in PMC3424542.

Target: T1, XtrLin28b CSD (Xenopus tropicalis, UniProt B4F6I0 27-114)
T1 sequence: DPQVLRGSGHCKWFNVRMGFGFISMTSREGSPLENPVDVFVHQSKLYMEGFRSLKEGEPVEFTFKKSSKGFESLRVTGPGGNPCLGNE
Assay: crystal structure

Q: Does UUUUUU (ssRNA) [rU6] bind?
A: binds
